Data as given in patent US20230227537A1 (VIB VZW, published 2023).
Like-named read-outs stand apart in the source and are kept apart here.

What was measured:
[1] = target: T1, Mouse IgG1 Fc fused SARS-CoV-2 RBD (Sino Biological) (SARS-CoV-2; mouse, UniProt P0DTC2 330-518)
[2] = target: T1, Mouse IgG1 Fc fused SARS-CoV-2 RBD …; remark: listed apart in the source
[3] = target: SARS-CoV-2 spike, full length, on cells or on pseudotyped/authentic virus (SARS-CoV-2, UniProt P0DTC2 14-1273); assay: cell-based or functional assay
[4] = target: T2, SARS-CoV-2 RBD protein Avi-tag biotinylated (AcroBiosystems SPD-C82E9) (SARS-CoV-2, UniProt P0DTC2 330-518)
[5] = target: T1, Mouse IgG1 Fc fused SARS-CoV-2 RBD …; remark: listed apart in the source
[6] = target: T2, SARS-CoV-2 RBD protein Avi-tag …; remark: listed apart in the source
[7] = target: T2, SARS-CoV-2 RBD protein Avi-tag …; remark: listed apart in the source
[8] = target: T1, Mouse IgG1 Fc fused SARS-CoV-2 RBD …; assay: BLI, RBD-mFc on AMC tips, global 1:1 fit
[9] = target: T2, SARS-CoV-2 RBD protein Avi-tag …; remark: listed apart in the source
[10] = target: T3, monomeric human Fc-fused SARS-CoV-2_RBD-SD1 (SARS-CoV-2, UniProt P0DTC2 319-591); assay: BLI, RBD-SD1-mono-hFc on AHC tips
[11] = target: T3, monomeric human Fc-fused …; assay: BLI kinetics on RBD-mono-hFc, 1:1 fit, mean ± SD, n = 2 [upper graph]
[12] = target: T3, monomeric human Fc-fused …; assay: BLI kinetics on RBD-mono-hFc, 1:1 fit, mean ± SD, n = 2
[13] = target: T3, monomeric human Fc-fused …; assay: BLI kinetics on RBD-mono-hFc, 1:1 fit, mean ± SD, n = 2 [lower graph]
[14] = target: T1, Mouse IgG1 Fc fused SARS-CoV-2 RBD …; remark: listed apart in the source
[15] = target: T2, SARS-CoV-2 RBD protein Avi-tag …; remark: listed apart in the source
[16] = target: WT SARS-CoV-2 RBD displayed on Saccharomyces cerevisiae (SARS-CoV-2, UniProt P0DTC2 331-518)

B1: D72-22: h1-VHH72-[change]-GS-hIgG1hinge-hIgG1Fc (Fc fusion)
chain: EVQLVESGGGLVQPGGSLRLSCAASGRTFSEYAMGWFRQAPGKEREFVATISWSGGATYYTDSVKGRFTISRDNAKNTVYLQMNSLRPEDTAVYYCAAAGLGTVVSEWDYDYDYWGQGTLVTVSSGS
B1 gave an EC50 [1] of 0.00439 mg/L, a Kd [2] of 0.0471 nM and a koff [2] of 4.87e-05 s⁻¹. For the same binder, the kon [2] was 1.07e+06 M⁻¹ s⁻¹ and the “IC50, plaque reduction neutralization, authentic SARS-CoV-2” value [3] was 0.12 mg/L.

B2: VHH72_h1(E1D,S56A) sequence optimized (SO), monovalent (VHH)
VHH: DVQLVESGGGLVQPGGSLRLSCAASGRTFSEYAMGWFRQAPGKEREFVATISWSGGATYYTDSVKGRFTISRDNAKNTVYLQMNSLRPEDTAVYYCAAAGLGTVVSEWDYDYDYWGQGTLVTVSS
Binder B2 has a koff [4] of 0.0024 s⁻¹ and a koff [5] of 0.00568 s⁻¹.

B3: VHH2.50 (VHH)
VHH: QVQLQESGGGLVQAGGSLRLSCAASGRTFSSIAMGWFRQAPGKEREFVATISWSGGSTYYADSVKGRFTISRDNAKNTVYLQMNSLKPEDTAVYYCAAAGLGTVVSEWDYDYDYWGQGTQVTVSS
Work on B3 yielded an IC50 [6] of 27.7 nM.

B4: VHH72_h1 (E1D) (VHH)
VHH: DVQLVESGGGLVQPGGSLRLSCAASGRTFSEYAMGWFRQAPGKEREFVATISWSGGSTYYTDSVKGRFTISRDNAKNTVYLQMNSLRPEDTAVYYCAAAGLGTVVSEWDYDYDYWGQGTLVTVSS
B4 gave a koff [4] of 0.00354 s⁻¹, a Kd [5] of 31.1 nM and a koff [5] of 0.0313 s⁻¹. The Kd [7] was 10.4 nM and the koff [7] was 0.00204 s⁻¹.

B5: D72-15: VHH72-GS-hIgG1hinge-hIgG1Fc-L234A-L235A-P329G (Fc fusion)
chain: QVQLQESGGGLVQAGGSLRLSCAASGRTFSEYAMGWFRQAPGKEREFVATISWSGGSTYYTDSVKGRFTISRDNAKNTVYLQMNSLKPDDTAVYYCAAAGLGTVVSEWDYDYDYWGQGTQVTVSSGS
notes: ExpiCHO
With B5 the EC50 [1] was 0.0108 mg/L, the Kd [8] was 0.13 nM and the koff [8] was 0.000297 s⁻¹. It also gave a kon [8] of 2.29e+06 M⁻¹ s⁻¹.

B6: D72-17: h1-VHH72-GS-hIgG1hinge-hIgG1Fc-L234A-L235A-P329G (Fc fusion)
chain: EVQLVESGGGLVQPGGSLRLSCAASGRTFSEYAMGWFRQAPGKEREFVATISWSGGSTYYTDSVKGRFTISRDNAKNTVYLQMNSLRPEDTAVYYCAAAGLGTVVSEWDYDYDYWGQGTLVTVSSGS
notes: ExpiCHO
B6 showed an EC50 [1] of 0.00836 mg/L, a Kd [8] of 0.1 nM and a koff [8] of 0.000178 s⁻¹. It also gave a kon [8] of 1.77e+06 M⁻¹ s⁻¹.

B7: PB9677 hIgG4 FALA (Fc fusion)
VHH: DVQLVESGGGLVQPGGSLRLSCAASGRTFSEYAMGWFRQAPGKEREFVATISWSGGATYYTDSVKGRFTISRDNAKNTVYLQMNSLRPEDTAVYYCAAAGLGTVVSEWDYDYDYWGQGTLVTVSS
B7 was tested, and the “IC50 (read off the curve)” value [9] was ~0.02 mg/L.

B8: VHH3.77 (VHH)
VHH: QVQLQESGGGLVQAGGSLRLSCVSSGRAFGNGAVGWFRQGPGRPREFVATVSWNGGGTYFAESVRGRFTISRDNAKNTVYLQMNNLKPEDTAVYYCALAGEGTVVSEWDYDYEYWGQGTQVTVSS
B8 was tested, and the IC50 [6] was 0.237 nM, the Kd [10] was 0.15 nM and the Kd [11] was 0.153 nM. The koff [11] was 0.000297 s⁻¹ and the kon [11] was 1.96e+06 M⁻¹ s⁻¹.

B9: VHH3.17 (VHH)
VHH: QVQLQESGGGLVEAGGSLTLSCAASGRAFGDGAVGWFRQGPGRPREFVATVSWNGGGTYFAESVRGRFTISRDNAKNTVYLQMNNLKPEDTAVYYCALAGEGTVVSEWDYDYEYWGQGTQVTVSS
For B9, the IC50 [6] was 0.316 nM, the Kd [10] was 0.234 nM and the koff [12] was 0.000358 s⁻¹. The kon [12] was 1.54e+06 M⁻¹ s⁻¹.

B10: VHH3.144 (VHH)
VHH: QVQLQESGGGLVQAGGSLRLSCVASGRAFGNGAVGWFRQAPGREREFVATVSWNGGGTYYAESVRGRFTISRDNAKSTVYLQMNSLKPEDTAVYYCASAGEGTVVSEWDYDYDYWGQGTQVTVSS
For B10, the IC50 [6] was 0.397 nM.

B11: VHH3.115 (VHH)
VHH: QVQLQESGGGLVQTGGSLRLSCAASGLTFSDIAMGWFRQAPGREREFVATISWSGGGTYYAEPVRGRFAISRDNAKNTVYLQMNSLKPEDTAVYYCAAAGAGTVVSEWDYDYDYWGQGTQVTVSS
B11 gave an IC50 [6] of 0.409 nM, a Kd [10] of 0.734 nM and a koff [13] of 0.00157 s⁻¹. The kon [13] was 2.14e+06 M⁻¹ s⁻¹.

B12: VHH72_h1(S56A) (VHH)
VHH: EVQLVESGGGLVQPGGSLRLSCAASGRTFSEYAMGWFRQAPGKEREFVATISWSGGATYYTDSVKGRFTISRDNAKNTVYLQMNSLRPEDTAVYYCAAAGLGTVVSEWDYDYDYWGQGTLVTVSS
With B12 the Kd [14] was 5.26 nM, the “fold better competition than VHH72-wt and VHH72_h1” value [14] was 7 fold and the “fold improvement of KD against VHH72 h1” value [14] was > 6 fold. For the same binder, the Kd [15] was 3.09 nM, the “fold improvement of KD against VHH72 h1” value [15] was 3 fold and the koff [15] was 0.00069 s⁻¹. For the same binder, the “EC50 (read off the curve)” value [16] was ~0.3 mg/L.

B13: VHH3BE4 (VHH)
VHH: QVQLQESGGGLVQAGGSLRLSCVASGRAFGNGAVGWFRQAPGREREFVATVSWNGGGTYYAESVRGRFTISRDNAKSTVYLQMNSLKPEDTAVYYCASAGEGTVVSEWDYDYDYWGQGTQVTVSS
In the case of B13, the IC50 [6] is reported as 0.212 nM.

B14: VHH3.36 (VHH)
VHH: QVQLQESGGGLVQAGDSLRLSCVVSGGTFSSYAMGWFRQAPGKERELVAAINWGGISVYYADSVKGRFTISRDNAENTVYLQMNSLKPEDTAVYYCAADPKGWSEWDMEYWGKGTQVTVSS
B14 showed an IC50 [6] of 0.156 nM.

B15: VHH3.47 (VHH)
VHH: QVQLQESGGGLVQAGDSLRLSCAASGHNFSTYAMAWFRQAPGTERELVAAISENDVMRYYADSVKGRFTISRDNAKNMAYLQMNSLKVEDTAVYLCAADPKGWSEWDMDYWGKGTQVTVSS
In the case of B15, the IC50 [6] is reported as 0.297 nM.

B16: VHH3.35 (VHH)
VHH: QVQLQESGGGLVQAGGSLTLSCEVSGRTNDNYGVGWFRQVPGAERELVAAIRWSSISRYYKDSVKGRFTISRDNAKNTVYLQMDMLKAEDTAVYYCAADPAGWSEFGMEYWGKGTQVTVSS
B16 gave an IC50 [6] of 0.406 nM.

B17: VHH3.55 (VHH)
VHH: QVQLQESGGGLVQAGGSLRLSCEVSGRTNDNYGVGWFRQVPGAERELVAAIRWSSISRYYKDSVKGRFTISRDNAKNTVYLQMDMLKPEDTAAYYCAADPAGWSEFGMEYWGKGTQVTVSS
For B17, the IC50 [6] was 0.322 nM.

B18: VHH3.29 (VHH)
VHH: QVQLQESGGGLVQAGGSLRLSCVASGRTFSSGGMGWFRQAPGQEREFVAGIGWAGLSSYYLDSVKGRFTISLDNAKNTVYLQMNMLKPEDTGVYYCAADDHGWSAAGMDYLGQGTQVTVSS
For B18, the IC50 [6] was 0.389 nM.

B19: VHH3.38 (VHH)
VHH: QVQLQESGGGLVQAGGSLRLSCAASGGTFNNYAMAWFRQAPGQERELVAAMFWSGLPKYYADSVKGRFTISTDDAKNTVYLQMNGLKPEDTAVYYCAADSRGWSDVGGMDYWGKGTQVTVSS
B19 showed an IC50 [6] of 0.769 nM.

B20: VHH3.149 (VHH)
VHH: QVQLQESGGGLVQAGGSLKLSCAASGRTFSSYALGWFRQAPGTEREFVSAINWFGAPTYYADSVKGRFTISRDNAKNTVYLQMDNLKPEDTAVYYCAADSKGWDPQDMDYWGKGTQVTVSS
In the case of B20, the IC50 [6] is reported as 0.334 nM.

B21: VHH3.83 (VHH)
VHH: QVQLQESGGGLVQPGDSLRLSCVLSGGVFTSYAMGWFRQAPGKEREFLAAITFNSDATYYADSVKGRFTISRDNAKNTAYLQMNSLKPNDTAVYSCAAGGNHYNPQYYHDYDKYDHWGQGTQVTVSS
For B21, the IC50 [6] was 0.162 nM.

B22: D72-52: VHH72_h1_E1D_S56A-([change])2-hIgG1hinge_EPKSCdel-hIgG1Fc_LALAPG_Kdel (Fc fusion)
chain: DVQLVESGGGLVQPGGSLRLSCAASGRTFSEYAMGWFRQAPGKEREFVATISWSGGATYYTDSVKGRFTISRDNAKNTVYLQMNSLRPEDTAVYYCAAAGLGTVVSEWDYDYDYWGQGTLVTVSSGGGGSGGGGSDKTHTCPPCPAPEAAGGPSVFLFPPKPKDTLMISRTPEVTCVVVDVSHEDPEVKFNWYVDGVEVHNAKTKPREEQYNSTYRVVSVLTVLHQDWLNGKEYKCKVSNKALGAPIEKTISKAKGQPREPQVYTLPPSRDELTKNQVSLTCLVKGFYPSDIAVEWESNGQPENNYKTTPPVLDSDGSFFLYSKLTVDKSRWQQGNVFSCSVMHEALHNHYTQKSLSLSPG
In the case of B22, the IC50 [14] is reported as 0.199 mg/L.
